The target in series [1] is T1, YY1 (UniProt P25490 1-414). In words: EMSA; Pull-down: 25 mM Tris, 150 mM NaCl, pH 7.2, room temperature, 30 min; EMSA: LightShift chemiluminescent kit, 5% native PAGE, buffer not stated. The settings on record: protein: recombinant; tags: N-terminal 3xFlag; label: 5'-biotin. (In general: Mobility shift assays separate free from complexed probe on a gel.)
The target in series [2] is T1, YY1. In words: EMSA; complex diminished by anti-YY1, not by IgG (Fig 2C); Pull-down: 25 mM Tris, 150 mM NaCl, pH 7.2, room temperature, 30 min; EMSA: LightShift chemiluminescent kit, 5% native PAGE, buffer not stated. The settings on record: protein: recombinant; tags: N-terminal 3xFlag; label: 5'-biotin.

T1 sequence (P25490 whole entry): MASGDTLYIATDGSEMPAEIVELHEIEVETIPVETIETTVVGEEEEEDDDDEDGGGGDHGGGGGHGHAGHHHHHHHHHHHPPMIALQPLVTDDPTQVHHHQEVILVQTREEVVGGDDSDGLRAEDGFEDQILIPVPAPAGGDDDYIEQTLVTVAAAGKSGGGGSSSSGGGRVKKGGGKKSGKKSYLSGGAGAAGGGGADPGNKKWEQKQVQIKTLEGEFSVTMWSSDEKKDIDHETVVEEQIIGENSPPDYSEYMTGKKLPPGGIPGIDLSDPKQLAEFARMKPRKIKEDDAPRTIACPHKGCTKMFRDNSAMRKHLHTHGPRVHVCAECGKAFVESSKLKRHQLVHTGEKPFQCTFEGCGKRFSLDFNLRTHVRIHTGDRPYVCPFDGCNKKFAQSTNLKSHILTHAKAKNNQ

B1: MUT FEN1 (dsDNA)
DNA 1: AACGCTCTCAGCAATTTGCCCCGCGAAG
DNA 2: CTTCGCGGGGCAAATTGCTGAGAGCGTT
For the molecule B1, in the series with YY1 [1], the binding result is “no binding”.

B2: WT FEN1 (dsDNA)
DNA 1: AACGCTCTCACCATTTTGCCCCGCGAAG
DNA 2: CTTCGCGGGGCAAAATGGTGAGAGCGTT
For the molecule B2, in the series with YY1 [2], the binding result was “binds”.

The values above are taken from PMC4348373, “YY1 suppresses FEN1 over-expression and drug resistance in breast cancer”.
